Results published in patent publication US11278600B2, “Human alpha-galactosidase variants” (Codexis, Inc., priority 2014, dated 2022).
Numbering of substitutions follows the chain as printed.

B1: 615 (protein)
chain: LDNGLARTPTMGWLHWERFMCNLDCQEEPDSCISEKLFMEMAERMVNEGWKDAGYEYLCIDDCWMAPQRDSEGRLQADPQRFPHGIRQLANHVHSKGLKLGIYADVGNKTCAGFPGSFGYYDIDAQTFADWGVDLLKFDGCYCDSLENLADGYKHMSLALNRTGRPIVYSCEWPLYMWPFQKPNYTEIRQYCNHWRNFADIDDSWASIKSILDWTSRNQERIVDVAGPGGWNDPDMLVIGNFGLSWDQQVTQMALWAIMAAPLFMSNDLRHISPQAKALLQDKDVIAINQDPLGKQGYQLRKGDNFEVWERPLSGDAWAVAIINRQEIGGPRSYTIPVASLGKGVACNPACFITQLLPVKRQLGFYNWTSRLKSHINPTGTVLLQLENTHQMSLKDLL
modifications: Synthetic Polypeptide sequence of Variant No. 615 of mature Human GLA
B2: 619 (protein)
chain: B1 chain with N47T, H271A
modifications: Synthetic Polypeptide sequence of Variant No. 619 of mature Human GLA
B3: 621 (protein)
chain: B1 chain with N47T, M259E, H271A, H390Q
modifications: Synthetic Polypeptide sequence of Variant No. 621 of mature Human GLA
B4: 618 (protein)
chain: B1 chain with N47T, H271A, H390M
modifications: Synthetic Polypeptide sequence of Variant No. 618 of mature Human GLA
B5: 622 (protein)
chain: B1 chain with M259W, H271A, H390Q, M392T
modifications: Synthetic Polypeptide sequence of Variant No. 622 of mature Human GLA
B6: 627 (protein)
chain: B1 chain with M259W, H271A, M392T
modifications: Synthetic Polypeptide sequence of Variant No. 627 of mature Human GLA
B7: 626 (protein)
chain: B1 chain with N47S, H271A, H390Q
modifications: Synthetic Polypeptide sequence of Variant No. 626 of mature Human GLA
B8: 628 (protein)
chain: B1 chain with H271A
modifications: Synthetic Polypeptide sequence of Variant No. 628 of mature Human GLA
B9: 616 (protein)
chain: B1 chain with N47T, M259W, H271A, H390Q
modifications: Synthetic Polypeptide sequence of Variant No. 616 of mature Human GLA
B10: 623 (protein)
chain: B1 chain with H92Y, H271A, A276S, H390M, M392T
modifications: Synthetic Polypeptide sequence of Variant No. 623 of mature Human GLA
B11: 629 (protein)
chain: B1 chain with N47T, H92Y, H271A, H390Q
modifications: Synthetic Polypeptide sequence of Variant No. 629 of mature Human GLA
B12: 624 (protein)
chain: B1 chain with H92Y, H271A, H390Q
modifications: Synthetic Polypeptide sequence of Variant No. 624 of mature Human GLA
B13: 620 (protein)
chain: B1 chain with N47T, H271A, H390Q
modifications: Synthetic Polypeptide sequence of Variant No. 620 of mature Human GLA
B14: 609 (protein)
chain: B1 chain with N47S, H92Y, H390M
modifications: Synthetic Polypeptide sequence of Variant No. 609 of mature Human GLA
B15: 625 (protein)
chain: B1 chain with N47T, H271A, H390M, M392T
modifications: Synthetic Polypeptide sequence of Variant No. 625
B16: 617 (protein)
chain: B1 chain with N47S, L136V, M259A, H390Q
modifications: Synthetic Polypeptide sequence of Variant No. 617 of mature Human GLA

How the values were obtained:
Assay type in all cases: biochemical
[1] = HTP-analysis of yeast culture supernatants, no challenge (MUGal hydrolysis); conditions: activity of the variant/activity of Rd3BB (SEQ ID NO: 13), yeast supernatant
Summary of the method: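 GLA variants were expressed in INVSc1 yeast grown in SD-Ura broth with glucose at 30° C., and culture supernatants were collected after 66-84 h. Supernatant was mixed with McIlvaine buffer pH 4.8 and MUGal (2 mM stock) in 50 mM citrate, 200 mM KCl, pH 4.6, incubated at 37° C. for 30-180 minutes, then quenched with sodium carbonate.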

[2] = HTP-analysis of supernatants pretreated with acid (MUGal hydrolysis); conditions: challenge at pH 3.3; activity of the variant/activity of Rd3BB (SEQ ID NO: 13); yeast supernatant
Summary of the method: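 Supernatants from INVSc1 yeast secreting GLA variants were challenged at 37° C. for 1-3 h in McIlvaine buffer at pH 3.3-4.3. Residual activity was then measured on 4 mM MUGal substrate stock at pH 4.8 with citrate buffer pH 4.3, over 30-180 min at 37° C. Reactions were quenched with sodium carbonate and read by fluorescence (Ex 355/Em 448 nm).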

[3] = HTP-analysis of supernatants pretreated with base (MUGal hydrolysis); conditions: challenge at pH 9.7; activity of the variant/activity of Rd3BB (SEQ ID NO: 13); yeast supernatant
Summary of the method: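 GLA variants were secreted by transformed INVSc1 yeast grown 66-84 h at 30° C. Supernatants were exposed to neutral-to-basic buffers (pH 7.0-9.7) at 37° C for 1-18 h, then assayed with MUGal in acidic citrate/McIlvaine buffer, with fluorescence read after quenching.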

| Molecule | Relative Activity of GLA Variants After No Challenge (NC) [1] | Relative Activity of GLA Variants After Challenge at pH 3.3 [2] | Relative Activity of GLA Variants After Challenge at pH 9.7 [3] |
| --- | --- | --- | --- |
| B1 | + (+ = 1.5 to 5 relative activity over Rd3BB (SEQ ID NO: 13)) | ++ (++ = >5 to 10 relative activity over Rd3BB (SEQ ID NO: 13)) | ++ (++ = >5 to 10 relative activity over Rd3BB (SEQ ID NO: 13)) |
| B2 | + (+ = 1.5 to 5 relative activity over Rd3BB (SEQ ID NO: 13)) | ++ (++ = >5 to 10 relative activity over Rd3BB (SEQ ID NO: 13)) | ++ (++ = >5 to 10 relative activity over Rd3BB (SEQ ID NO: 13)) |
| B3 | + (+ = 1.5 to 5 relative activity over Rd3BB (SEQ ID NO: 13)) | ++ (++ = >5 to 10 relative activity over Rd3BB (SEQ ID NO: 13)) | − (− = <1.5 relative activity to Rd3BB (SEQ ID NO: 13)) |
| B4 | + (+ = 1.5 to 5 relative activity over Rd3BB (SEQ ID NO: 13)) | ++ (++ = >5 to 10 relative activity over Rd3BB (SEQ ID NO: 13)) | ++ (++ = >5 to 10 relative activity over Rd3BB (SEQ ID NO: 13)) |
| B5 | + (+ = 1.5 to 5 relative activity over Rd3BB (SEQ ID NO: 13)) | − (− = <1.5 relative activity to Rd3BB (SEQ ID NO: 13)) | ++ (++ = >5 to 10 relative activity over Rd3BB (SEQ ID NO: 13)) |
| B6 | + (+ = 1.5 to 5 relative activity over Rd3BB (SEQ ID NO: 13)) | − (− = <1.5 relative activity to Rd3BB (SEQ ID NO: 13)) | ++ (++ = >5 to 10 relative activity over Rd3BB (SEQ ID NO: 13)) |
| B7 | + (+ = 1.5 to 5 relative activity over Rd3BB (SEQ ID NO: 13)) | ++ (++ = >5 to 10 relative activity over Rd3BB (SEQ ID NO: 13)) | ++ (++ = >5 to 10 relative activity over Rd3BB (SEQ ID NO: 13)) |
| B8 | + (+ = 1.5 to 5 relative activity over Rd3BB (SEQ ID NO: 13)) | + (+ = 1.5 to 5 relative activity over Rd3BB (SEQ ID NO: 13)) | ++ (++ = >5 to 10 relative activity over Rd3BB (SEQ ID NO: 13)) |
| B9 | + (+ = 1.5 to 5 relative activity over Rd3BB (SEQ ID NO: 13)) | + (+ = 1.5 to 5 relative activity over Rd3BB (SEQ ID NO: 13)) | ++ (++ = >5 to 10 relative activity over Rd3BB (SEQ ID NO: 13)) |
| B10 | + (+ = 1.5 to 5 relative activity over Rd3BB (SEQ ID NO: 13)) | +++ (+++ = >10 relative activity over Rd3BB (SEQ ID NO: 13)) | ++ (++ = >5 to 10 relative activity over Rd3BB (SEQ ID NO: 13)) |
| B11 | + (+ = 1.5 to 5 relative activity over Rd3BB (SEQ ID NO: 13)) | ++ (++ = >5 to 10 relative activity over Rd3BB (SEQ ID NO: 13)) | ++ (++ = >5 to 10 relative activity over Rd3BB (SEQ ID NO: 13)) |
| B12 | + (+ = 1.5 to 5 relative activity over Rd3BB (SEQ ID NO: 13)) | ++ (++ = >5 to 10 relative activity over Rd3BB (SEQ ID NO: 13)) | ++ (++ = >5 to 10 relative activity over Rd3BB (SEQ ID NO: 13)) |
| B13 | − (− = <1.5 relative activity to Rd3BB (SEQ ID NO: 13)) | + (+ = 1.5 to 5 relative activity over Rd3BB (SEQ ID NO: 13)) | ++ (++ = >5 to 10 relative activity over Rd3BB (SEQ ID NO: 13)) |
| B14 | + (+ = 1.5 to 5 relative activity over Rd3BB (SEQ ID NO: 13)) | ++ (++ = >5 to 10 relative activity over Rd3BB (SEQ ID NO: 13)) | ++ (++ = >5 to 10 relative activity over Rd3BB (SEQ ID NO: 13)) |
| B15 | + (+ = 1.5 to 5 relative activity over Rd3BB (SEQ ID NO: 13)) | ++ (++ = >5 to 10 relative activity over Rd3BB (SEQ ID NO: 13)) | ++ (++ = >5 to 10 relative activity over Rd3BB (SEQ ID NO: 13)) |
| B16 | + (+ = 1.5 to 5 relative activity over Rd3BB (SEQ ID NO: 13)) | ++ (++ = >5 to 10 relative activity over Rd3BB (SEQ ID NO: 13)) | ++ (++ = >5 to 10 relative activity over Rd3BB (SEQ ID NO: 13)) |
